Measurements published in patent US20150203577A1 (Chugai, published 2015).
Positions count from the first letter of the chain named. In names and notes the source's numbering stands.

T1: mouse FcγRII (mouse, UniProt P08101 30-210)
T1 construct: Extracellular domain with C-terminal His tag, made in FreeStyle 293 cells; also called mFcγRII; mFcgRII
T1 sequence: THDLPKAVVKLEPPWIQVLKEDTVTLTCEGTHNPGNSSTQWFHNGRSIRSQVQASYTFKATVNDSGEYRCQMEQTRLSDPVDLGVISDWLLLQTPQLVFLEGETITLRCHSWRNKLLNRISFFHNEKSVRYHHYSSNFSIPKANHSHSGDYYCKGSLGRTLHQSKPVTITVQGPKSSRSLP

T2: mouse FcγRIII (mouse, UniProt P08508 31-215)
T2 construct: Extracellular domain with C-terminal His tag, made in FreeStyle 293 cells; also called mFcγRIII; mFcgRIII
T2 chain: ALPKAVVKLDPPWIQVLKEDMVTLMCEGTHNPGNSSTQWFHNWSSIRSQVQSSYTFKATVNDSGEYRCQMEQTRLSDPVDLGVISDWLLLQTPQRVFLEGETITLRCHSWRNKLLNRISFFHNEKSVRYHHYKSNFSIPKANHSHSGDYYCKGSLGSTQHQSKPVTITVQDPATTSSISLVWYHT

T3: mouse FcγRII extracellular domain, C-terminal His tag (mouse, UniProt P08101 30-210)
T3 construct: Whole entry named; also called mFcγRII; mFcgRII
T3 sequence: T1 sequence

T4: mouse FcγRIII extracellular domain, C-terminal His tag (mouse, UniProt P08508 31-215)
T4 construct: Whole entry named; also called mFcγRIII; mFcgRIII
T4 chain: T2 chain

B1: H237-MB719/MRAL-k0 (antibody, mouse IgG1, kappa)
heavy: QVQLQESGPGLVKPSETLSLTCAVSGHSISHDHAWSWVRQPPGEGLEWIGFISYSGITNYNPSLQGRVTISRDNSKNTLYLQMNSLRAEDTAVYYCARSLARTTAMDYWGEGTLVTVSSAKTTPPSVYPLAPGSAAQTNSMVTLGCLVKGYFPEPVTVTWNSGSLSSGVHTFPAVLQSDLYTLSSSVTVPSSTWPSETVTCNVAHPASSTKVDKKIVPRDCGCKPCICEPNEVEQVFIFPPKPKDVLTITLTPKVTCVVVDISKDDPEVQFSWFVDDVEVHTAQTQPREEQFNSTFRSVSELPIMHQDWLNGKEFKCRVNSAAFPAPIEKTISKTKGRPKAPQVYTIPPPKEQMAKDKVSLTCMITDFFPEDITVEWQWNGQPAENYKNTQPIMDTDGSYFVYSKLNVQKSNWEAGNTFTCSVLHEGLHNHHTEKSLSHSPGK
light: not shown
notes: copies: 2 + 2
B2: H237-MB541/MRAL-k0 (antibody)
heavy: B1 heavy with Q235M, S294L, K330R
light: not shown
notes: copies: 2 + 2
B3: H237-MB855/MRAL-k0 (antibody, mouse IgG1, kappa)
heavy: B1 heavy with Q235L, Q291L, A322D, A323G, K330R
light: not shown
notes: copies: 2 + 2
B4: H237-MB864/MRAL-k0 (antibody, mouse IgG1, kappa)
heavy: B1 heavy with Q235L, K264D, A322D, A323G, K330R
light: not shown
notes: '8239L' in r313c2 read as S239L; copies: 2 + 2
B5: H237-MB723/MRAL-k0 (antibody, mouse IgG1, kappa)
heavy: B1 heavy with P230D, N231Y, V233E, Q235D
light: not shown
notes: copies: 2 + 2
B6: H237-MB546/MRAL-k0 (antibody)
heavy: B1 heavy with Q235M, S294L, N320D, K330R
light: not shown
notes: copies: 2 + 2
B7: H237-MB865/MRAL-k0 (antibody, mouse IgG1, kappa)
heavy: B1 heavy with Q235L, K264D, Q291L, A322D, A323G
light: not shown
notes: copies: 2 + 2
B8: H237-MB853/MRAL-k0 (antibody, mouse IgG1, kappa)
heavy: B1 heavy with Q235L, Q291L, A322D, A323G, P327Y
light: not shown
notes: copies: 2 + 2
B9: H237-MB722/MRAL-k0 (antibody)
heavy: B1 heavy with P230A, N231Y, V233E, Q235D
light: not shown
notes: copies: 2 + 2
B10: H237-MB861/MRAL-k0 (antibody, mouse IgG1, kappa)
heavy: B1 heavy with Q235L, K264D, N320D, A322D, A323G
light: not shown
notes: copies: 2 + 2
B11: H237-MB093/MRAL-k0 (antibody, mouse IgG1, kappa)
heavy: B1 heavy with E229T, P230V, N231P, Q235S
light: not shown
notes: copies: 2 + 2
B12: H237-MB258/MRAL-k0 (antibody, mouse IgG1, kappa)
heavy: B1 heavy with E229T, P230V, N231P, E234S, Q235S, S294H
light: not shown
notes: copies: 2 + 2
B13: H237-MB112/MRAL-k0 (antibody, mouse IgG1, kappa)
heavy: B1 heavy with E229T, P230V, N231P, E234S, Q235F
light: not shown
notes: copies: 2 + 2
B14: H237-MB147/MRAL-k0 (antibody, mouse IgG1, kappa)
heavy: B1 heavy with E229T, P230V, N231P, E234S, Q235S, F237E
light: not shown
notes: copies: 2 + 2
B15: H237-MB208/MRAL-k0 (antibody, mouse IgG1, kappa)
heavy: B1 heavy with E229T, P230V, N231P, E234S, Q235S, S263M
light: not shown
notes: copies: 2 + 2
B16: H237-MB125/MRAL-k0 (antibody, mouse IgG1, kappa)
heavy: B1 heavy with E229T, P230V, N231P, E234S, Q235W
light: not shown
notes: copies: 2 + 2
B17: H237-MB159/MRAL-k0 (antibody, mouse IgG1, kappa)
heavy: B1 heavy with E229T, P230V, N231P, E234S, Q235S, F237T
light: not shown
notes: copies: 2 + 2
B18: H237-MB075/MRAL-k0 (antibody, mouse IgG1, kappa)
heavy: B1 heavy with E229T, P230V, N231P, V233E, E234S, Q235S
light: not shown
notes: copies: 2 + 2
B19: H237-MB092/MRAL-k0 (antibody, mouse IgG1, kappa)
heavy: B1 heavy with E229T, P230V, N231P, E234D, Q235S
light: not shown
notes: copies: 2 + 2
B20: H237-MB146/MRAL-k0 (antibody, mouse IgG1, kappa)
heavy: B1 heavy with E229T, P230V, N231P, E234S, Q235S, F237D
light: not shown
notes: copies: 2 + 2
B21: H237-MB730/MRAL-k0 (antibody, mouse IgG1, kappa)
heavy: B1 heavy with E229Q, V233E, Q235D
light: not shown
notes: copies: 2 + 2
B22: H237-MB722/MRAL-k0 (antibody, mouse IgG1, kappa)
heavy: B1 heavy with P230A, N231Y, V233E, Q235D
light: not shown
notes: copies: 2 + 2
B23: H237-MB726/MRAL-k0 (antibody, mouse IgG1, kappa)
heavy: B1 heavy with P230V, N231Y, V233E, Q235D
light: not shown
notes: copies: 2 + 2
B24: H237-MB729/MRAL-k0 (antibody, mouse IgG1, kappa)
heavy: B1 heavy with V233E, Q235D
light: not shown
notes: copies: 2 + 2
B25: H237-MB727/MRAL-k0 (antibody, mouse IgG1, kappa)
heavy: B1 heavy with N231A, V233E, Q235D
light: not shown
notes: copies: 2 + 2
B26: H237-MB724/MRAL-k0 (antibody, mouse IgG1, kappa)
heavy: B1 heavy with P230N, N231Y, V233E, Q235D
light: not shown
notes: copies: 2 + 2
B27: H237-MB723/MRAL-k0 (antibody, mouse IgG1, kappa)
heavy: B1 heavy with P230D, N231Y, V233E, Q235D
light: not shown
notes: copies: 2 + 2
B28: H237-MB725/MRAL-k0 (antibody, mouse IgG1, kappa)
heavy: B1 heavy with P230T, N231Y, V233E, Q235D
light: not shown
notes: copies: 2 + 2

biological target: T1, mouse FcγRII; assay: SPR (Biacore), antibody captured on Protein L

Kd [nM] | Binder
2.98 | B1
2.04 | B2
5.81 | B3
1.9 | B4
19 | B5
1.33 | B6
2.51 | B7
5.99 | B8
8.04 | B9
2.74 | B10

Biological target: T2, mouse FcγRIII
Assay: SPR (Biacore), antibody captured on Protein L

Kd [nM] | Binder
122 | B1
86.4 | B2
248 | B3
77.6 | B4
645 | B5
50 | B6
84.4 | B7
249 | B8
341 | B9
117 | B10

biological target: T1, mouse FcγRII; assay: SPR (Biacore), KD of H237-mIgG1/MRAL-k0 / KD of variant
Description: (§1) Each altered antibody was analyzed for its interaction with each Fcγ receptor prepared above using Biacore T100 (GE Healthcare Japan Corp.), Biacore T200 (GE Healthcare Japan Corp.), Biacore A100, or Biacore 4000. The running buffer used was HBS-EP+ (GE Healthcare Japan Corp.). The assay temperature was set to 25° C. The sensor chips used were chips prepared by immobilizing Protein L (ACTIGEN or BioVision) onto Series S Sensor Chip CM5 (GE Healthcare Japan Corp.) or Series S Sensor Chip CM4 (GE Healthcare Japan Corp.) by the amine coupling method.
(§2) In order to calculate the KD value of each altered antibody for FcγR, kinetic analysis was conducted according to the following method: first, the antibody of interest was captured onto any of these chips and allowed to interact with mFcγR diluted with a running buffer. For the obtained sensorgram, the assay results were globally fit into the 1:1 Langmuir binding model using Biacore Evaluation Software to calculate an association rate constant ka (L/mol/s) and a dissociation rate constant kd (1/s). From these values, the dissociation constant KD (mol/L) was calculated.

relative mFcγRII-binding activity (mIgG1 = 1) [fold] | Binder
70.4 | B1
103 | B2
36.2 | B3
110 | B4
11 | B5
158 | B6
83.8 | B7
35 | B8
26.1 | B9
76.8 | B10

Biological target: T2, mouse FcγRIII
Assay: as above
Description: as §1, §2

relative mFcγRIII-binding activity (mIgG1 = 1) [fold] | Binder
2.3 | B1
3.3 | B2
1.1 | B3
3.6 | B4
0.4 | B5
5.6 | B6
3.3 | B7
1.1 | B8
0.8 | B9
2.4 | B10

biological target: T3, mouse FcγRII extracellular domain, …; assay: SPR (Biacore T200); KD of H237-mIgG1/MRAL-k0 / KD of variant

relative mFcγRII-binding activity (mIgG1 = 1) [fold] | Binder
2.48 | B11
0.37 | B12
0.47 | B13
0.95 | B14
0.4 | B15
0.81 | B16
0.37 | B17
0.12 | B18
0.16 | B19
0.85 | B20

Biological target: T4, mouse FcγRIII extracellular domain, …
Assay: as above

relative mFcγRIII-binding activity (mIgG1 = 1) [fold] | Binder
0.61 | B11
0.32 | B12
0.27 | B13
0.36 | B14
0.26 | B15
0.48 | B16
0.28 | B17
0.07 | B18
0.05 | B19
0.21 | B20

biological target: T3, mouse FcγRII extracellular domain, …; assay: as above; remark: another data set of the same source
Source text: (§3) The antibody H chain variable region used was the variable region H237 (SEQ ID NO: 1) of the H chain VH3-IgG1 of the anti-IL-6 receptor antibody Fv4-IgG1 described in WO2009/125825. The antibody L chain commonly used was the L chain MRAL-k0 (SEQ ID NO: 2) of the anti-IL-6 receptor antibody tocilizumab. The aforementioned 11 variants were used as templates to introduce the alteration. These variants were expressed and purified by the method of Reference Example 1 and evaluated for their binding to mFcγRII and mFcγRIII by the method of Reference Example 2 using Biacore T200.
as §1, §2

relative mFcγRII-binding activity (mIgG1 = 1) [fold] | Binder
7.24 | B21
33.3 | B22
35.7 | B23
10.4 | B24
11.7 | B25
20.8 | B26
14.1 | B27
24.3 | B28

Biological target: T4, mouse FcγRIII extracellular domain, …
Assay: as above
Remark: another data set of the same source
Source text: as §3, §1, §2

relative mFcγRIII-binding activity (mIgG1 = 1) [fold] | Binder
0.43 | B21
1.35 | B22
2.08 | B23
0.53 | B24
0.66 | B25
1.19 | B26
0.72 | B27
1.39 | B28
